From publication PMC7430590 (bioRxiv, 2020) come the findings set out here.

Assay [1] has as its target receptor binding domain (RBD; residues 319–541) of the SARS-CoV-2 spike (S) protein (SARS-CoV-2, UniProt P0DTC2). Put plainly: crystal structure.
For assay [2], the target named is Fc fusion protein of the RBD-SD1 region of SARS-CoV (SARS-CoV, strain not named, UniProt P59594). Description: ELISA.
In assay [3] the target is SARS-CoV-2 S protein-RBD-mFc (SARS-CoV-2, early reference sequence …, UniProt P0DTC2). Put plainly: SPR.

B1: CV07–270 Fab (Fab, V domains shown)
VH: QVQLVESGGGLVKPGGSLRLSCAASGFTFSDYYMTWIRQAPGKGLEWVSYISSSGSTIYYADSVKGRFTISRDNAKNSLYLQMNSLRAEDTAVYYCARARGSSGWYRIGTRWGNWFDPWGQGTLVTVSS
VL: QSALTQPASVSGSPGQSITISCTGTSSDVGGYNYVSWYQQHPGKAPKLMIYEVSNRPSGVSNRFSGSKSGNTASLTISGLQAEDEADYYCSSYTSSSNVVFGGGTMLTVL
As for B1, in assay [1], the binding result is reported as “binds”.

B2: CV38–142 (antibody, V domains shown)
VH: EVQLVQSGAEVKKPGESLKISCQGSGYSFTSYWIGWVRQMPGKGLEWMGIIYPGESDTRYSSSFQGHVTISADKSISTAYLQWSSLKASDTAMYYCARIRGVYSSGWIGGDYWGQGTLVTVSS
VL: not shown
As to B2, the binding result in assay [2] is recorded as “binds”.

B3: CV07–209 (antibody, V domains shown)
VH: QVQLVESGGGLVKPGGSLRLSCAASGFTFSDYYMSWIRQAPGKGLEWVSYISSSVSTIYYADSVKGRFTISRDNAKNSLYLQMNSLRAEDTAVYYCARDGVIPPRFDYWGQGTLVTVSS
VL: not shown
In turn, B3 came in with a Kd in assay [3] of 6 pM.
